The source of these data is patent US8673848 (Novartis, dated 2014).

The chains are these.
T1: human APJ receptor (hAPJ) (human, UniProt P35414 1-380)
T1 sequence (looked up): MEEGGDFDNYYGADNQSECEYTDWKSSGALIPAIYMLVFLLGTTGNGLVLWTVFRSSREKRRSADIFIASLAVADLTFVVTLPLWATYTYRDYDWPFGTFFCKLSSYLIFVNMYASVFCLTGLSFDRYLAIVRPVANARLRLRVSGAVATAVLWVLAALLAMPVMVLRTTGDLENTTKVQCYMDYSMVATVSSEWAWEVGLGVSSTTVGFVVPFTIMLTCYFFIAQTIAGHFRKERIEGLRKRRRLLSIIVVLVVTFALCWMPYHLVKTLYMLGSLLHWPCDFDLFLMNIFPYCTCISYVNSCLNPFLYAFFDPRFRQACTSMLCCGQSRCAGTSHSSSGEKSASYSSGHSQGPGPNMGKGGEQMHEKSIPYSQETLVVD

B1: Example 34: pE-R-K-R-L-C-H-K-G-P-Nle-C-F-OH (peptide)
peptide: [pGlu]RKRLCHKGP[Nle]CF-OH
modifications: disulfide 6-12
SMILES: CCCC[C@@H]1NC(=O)[C@@H]2CCCN2C(=O)CNC(=O)[C@H](CCCCN)NC(=O)[C@H](Cc2c[nH]cn2)NC(=O)[C@@H](NC(=O)[C@H](CC(C)C)NC(=O)[C@H](CCCNC(=N)N)NC(=O)[C@H](CCCCN)NC(=O)[C@H](CCCNC(=N)N)NC(=O)[C@@H]2CCC(=O)N2)CSSC[C@@H](C(=O)N[C@@H](Cc2ccccc2)C(=O)O)NC1=O
B2: Example 31: pE-F-P-R-L-C-H-K-G-P-Nle-C-F-OH (peptide)
peptide: [pGlu]FPRLCHKGP[Nle]CF-OH
modifications: disulfide 6-12
SMILES: CCCC[C@@H]1NC(=O)[C@@H]2CCCN2C(=O)CNC(=O)[C@H](CCCCN)NC(=O)[C@H](Cc2c[nH]cn2)NC(=O)[C@@H](NC(=O)[C@H](CC(C)C)NC(=O)[C@H](CCCNC(=N)N)NC(=O)[C@@H]2CCCN2C(=O)[C@H](Cc2ccccc2)NC(=O)[C@@H]2CCC(=O)N2)CSSC[C@@H](C(=O)N[C@@H](Cc2ccccc2)C(=O)O)NC1=O
B3: Example 35: pE-R-D-R-L-C-H-K-G-P-Nle-C-F-OH (peptide)
peptide: [pGlu]RDRLCHKGP[Nle]CF-OH
modifications: disulfide 6-12
SMILES: CCCC[C@@H]1NC(=O)[C@@H]2CCCN2C(=O)CNC(=O)[C@H](CCCCN)NC(=O)[C@H](Cc2c[nH]cn2)NC(=O)[C@@H](NC(=O)[C@H](CC(C)C)NC(=O)[C@H](CCCNC(=N)N)NC(=O)[C@H](CC(=O)O)NC(=O)[C@H](CCCNC(=N)N)NC(=O)[C@@H]2CCC(=O)N2)CSSC[C@@H](C(=O)N[C@@H](Cc2ccccc2)C(=O)O)NC1=O
B4: Example 36: pE-R-P-F-L-C-H-K-G-P-Nle-C-F-OH (peptide)
peptide: [pGlu]RPFLCHKGP[Nle]CF-OH
modifications: disulfide 6-12
SMILES: CCCC[C@@H]1NC(=O)[C@@H]2CCCN2C(=O)CNC(=O)[C@H](CCCCN)NC(=O)[C@H](Cc2c[nH]cn2)NC(=O)[C@@H](NC(=O)[C@H](CC(C)C)NC(=O)[C@H](Cc2ccccc2)NC(=O)[C@@H]2CCCN2C(=O)[C@H](CCCNC(=N)N)NC(=O)[C@@H]2CCC(=O)N2)CSSC[C@@H](C(=O)N[C@@H](Cc2ccccc2)C(=O)O)NC1=O
B5: Example 25: Lauroyl-O2Oc-Q-R-P-R-L-C-H-K-G-P-Nle-C-F-OH (peptide)
peptide: Lauroyl-[AEEA]QRPRLCHKGP[Nle]CF-OH
modifications: disulfide 7-13
SMILES: CCCCCCCCCCCC(=O)NCCOCCOCC(=O)N[C@@H](CCC(N)=O)C(=O)N[C@@H](CCCNC(=N)N)C(=O)N1CCC[C@H]1C(=O)N[C@@H](CCCNC(=N)N)C(=O)N[C@@H](CC(C)C)C(=O)N[C@H]1CSSC[C@@H](C(=O)N[C@@H](Cc2ccccc2)C(=O)O)NC(=O)[C@H](CCCC)NC(=O)[C@@H]2CCCN2C(=O)CNC(=O)[C@H](CCCCN)NC(=O)[C@H](Cc2c[nH]cn2)NC1=O
B6: Example 38: pE-R-P-R-L-C-H-E-G-P-Nle-C-F-OH (peptide)
peptide: [pGlu]RPRLCHEGP[Nle]CF-OH
modifications: disulfide 6-12
SMILES: CCCC[C@@H]1NC(=O)[C@@H]2CCCN2C(=O)CNC(=O)[C@H](CCC(=O)O)NC(=O)[C@H](Cc2c[nH]cn2)NC(=O)[C@@H](NC(=O)[C@H](CC(C)C)NC(=O)[C@H](CCCNC(=N)N)NC(=O)[C@@H]2CCCN2C(=O)[C@H](CCCNC(=N)N)NC(=O)[C@@H]2CCC(=O)N2)CSSC[C@@H](C(=O)N[C@@H](Cc2ccccc2)C(=O)O)NC1=O
B7: Example 22: pE-R-P-R-L-C-H-K-G-P-Nle-C-K(Palmitoyl)-OH (peptide)
peptide: [pGlu]RPRLCHKGP[Nle]CK(Palmitoyl)-OH
modifications: disulfide 6-12
SMILES: CCCCCCCCCCCCCCCC(=O)NCCCC[C@H](NC(=O)[C@@H]1CSSC[C@H](NC(=O)[C@H](CC(C)C)NC(=O)[C@H](CCCNC(=N)N)NC(=O)[C@@H]2CCCN2C(=O)[C@H](CCCNC(=N)N)NC(=O)[C@@H]2CCC(=O)N2)C(=O)N[C@@H](Cc2c[nH]cn2)C(=O)N[C@@H](CCCCN)C(=O)NCC(=O)N2CCC[C@H]2C(=O)N[C@@H](CCCC)C(=O)N1)C(=O)O
B8: Example 24: Palmitoyl-O2Oc-Q-R-P-R-L-C-H-K-G-P-Nle-C-F-OH (peptide)
peptide: Palmitoyl-[AEEA]QRPRLCHKGP[Nle]CF-OH
modifications: disulfide 7-13
SMILES: CCCCCCCCCCCCCCCC(=O)NCCOCCOCC(=O)N[C@@H](CCC(N)=O)C(=O)N[C@@H](CCCNC(=N)N)C(=O)N1CCC[C@H]1C(=O)N[C@@H](CCCNC(=N)N)C(=O)N[C@@H](CC(C)C)C(=O)N[C@H]1CSSC[C@@H](C(=O)N[C@@H](Cc2ccccc2)C(=O)O)NC(=O)[C@H](CCCC)NC(=O)[C@@H]2CCCN2C(=O)CNC(=O)[C@H](CCCCN)NC(=O)[C@H](Cc2c[nH]cn2)NC1=O
B9: Example 30: pE-r-P-R-L-C-H-K-G-P-Nle-C-F-OH (peptide)
peptide: [pGlu][dR]PRLCHKGP[Nle]CF-OH
modifications: disulfide 6-12
SMILES: CCCC[C@@H]1NC(=O)[C@@H]2CCCN2C(=O)CNC(=O)[C@H](CCCCN)NC(=O)[C@H](Cc2c[nH]cn2)NC(=O)[C@@H](NC(=O)[C@H](CC(C)C)NC(=O)[C@H](CCCNC(=N)N)NC(=O)[C@@H]2CCCN2C(=O)[C@@H](CCCNC(=N)N)NC(=O)[C@@H]2CCC(=O)N2)CSSC[C@@H](C(=O)N[C@@H](Cc2ccccc2)C(=O)O)NC1=O
B10: Example 23: pE-R-P-R-L-C-K(Palmitoyl)-K-G-P-Nle-C-F-OH (peptide)
peptide: [pGlu]RPRLCK(Palmitoyl)KGP[Nle]CF-OH
modifications: disulfide 6-12
SMILES: CCCCCCCCCCCCCCCC(=O)NCCCC[C@@H]1NC(=O)[C@@H](NC(=O)[C@H](CC(C)C)NC(=O)[C@H](CCCNC(=N)N)NC(=O)[C@@H]2CCCN2C(=O)[C@H](CCCNC(=N)N)NC(=O)[C@@H]2CCC(=O)N2)CSSC[C@@H](C(=O)N[C@@H](Cc2ccccc2)C(=O)O)NC(=O)[C@H](CCCC)NC(=O)[C@@H]2CCCN2C(=O)CNC(=O)[C@H](CCCCN)NC1=O
B11: Example 33: pE-R-p-R-L-C-H-K-G-P-Nle-C-F-OH (peptide)
peptide: [pGlu]R[dP]RLCHKGP[Nle]CF-OH
modifications: disulfide 6-12
SMILES: CCCC[C@@H]1NC(=O)[C@@H]2CCCN2C(=O)CNC(=O)[C@H](CCCCN)NC(=O)[C@H](Cc2c[nH]cn2)NC(=O)[C@@H](NC(=O)[C@H](CC(C)C)NC(=O)[C@H](CCCNC(=N)N)NC(=O)[C@H]2CCCN2C(=O)[C@H](CCCNC(=N)N)NC(=O)[C@@H]2CCC(=O)N2)CSSC[C@@H](C(=O)N[C@@H](Cc2ccccc2)C(=O)O)NC1=O
B12: Example 32: pE-E-P-R-L-C-H-K-G-P-Nle-C-F-OH (peptide)
peptide: [pGlu]EPRLCHKGP[Nle]CF-OH
modifications: disulfide 6-12
SMILES: CCCC[C@@H]1NC(=O)[C@@H]2CCCN2C(=O)CNC(=O)[C@H](CCCCN)NC(=O)[C@H](Cc2c[nH]cn2)NC(=O)[C@@H](NC(=O)[C@H](CC(C)C)NC(=O)[C@H](CCCNC(=N)N)NC(=O)[C@@H]2CCCN2C(=O)[C@H](CCC(=O)O)NC(=O)[C@@H]2CCC(=O)N2)CSSC[C@@H](C(=O)N[C@@H](Cc2ccccc2)C(=O)O)NC1=O
B13: Example 37: pE-R-P-R-K-C-H-K-G-P-Nle-C-F-OH (peptide)
peptide: [pGlu]RPRKCHKGP[Nle]CF-OH
modifications: disulfide 6-12
SMILES: CCCC[C@@H]1NC(=O)[C@@H]2CCCN2C(=O)CNC(=O)[C@H](CCCCN)NC(=O)[C@H](Cc2c[nH]cn2)NC(=O)[C@@H](NC(=O)[C@H](CCCCN)NC(=O)[C@H](CCCNC(=N)N)NC(=O)[C@@H]2CCCN2C(=O)[C@H](CCCNC(=N)N)NC(=O)[C@@H]2CCC(=O)N2)CSSC[C@@H](C(=O)N[C@@H](Cc2ccccc2)C(=O)O)NC1=O
B14: Example 27: pE-R-P-R-L-C-K(Lauroyl)-K-G-P-Nle-C-F-OH (peptide)
peptide: [pGlu]RPRLCK(Lauroyl)KGP[Nle]CF-OH
modifications: disulfide 6-12
SMILES: CCCCCCCCCCCC(=O)NCCCC[C@@H]1NC(=O)[C@@H](NC(=O)[C@H](CC(C)C)NC(=O)[C@H](CCCNC(=N)N)NC(=O)[C@@H]2CCCN2C(=O)[C@H](CCCNC(=N)N)NC(=O)[C@@H]2CCC(=O)N2)CSSC[C@@H](C(=O)N[C@@H](Cc2ccccc2)C(=O)O)NC(=O)[C@H](CCCC)NC(=O)[C@@H]2CCCN2C(=O)CNC(=O)[C@H](CCCCN)NC1=O
B15: Example 26: pE-R-P-R-L-C-H-K-G-P-Nle-C-K(Lauroyl)-OH (peptide)
peptide: [pGlu]RPRLCHKGP[Nle]CK(Lauroyl)-OH
modifications: disulfide 6-12
SMILES: CCCCCCCCCCCC(=O)NCCCC[C@H](NC(=O)[C@@H]1CSSC[C@H](NC(=O)[C@H](CC(C)C)NC(=O)[C@H](CCCNC(=N)N)NC(=O)[C@@H]2CCCN2C(=O)[C@H](CCCNC(=N)N)NC(=O)[C@@H]2CCC(=O)N2)C(=O)N[C@@H](Cc2c[nH]cn2)C(=O)N[C@@H](CCCCN)C(=O)NCC(=O)N2CCC[C@H]2C(=O)N[C@@H](CCCC)C(=O)N1)C(=O)O

Bridges are numbered along the chain shown (N, C = ends). [ ]: non-standard residue; d: D form. The star is where a group is joined. Palmitoyl = CCCCCCCCCCCCCCCC(=O)*; pGlu = O=C1CC[C@@H](C(=O)O)N1; Lauroyl = CCCCCCCCCCCC(=O)*; Nle = CCCC[C@H](N)C(=O)O; Orn = NCCC[C@H](N)C(=O)O; AEEA = NCCOCCOCC(=O)O

This experiment deals with T1, human APJ receptor (hAPJ). As to the kind of experiment: cell-based or functional assay.
On to B1, for which the “hAPJ Ca2+ Flux EC50” value was determined as 3.21 nM.

Consider B2, for which the “hAPJ Ca2+ Flux EC50” value worked out at 84.1 nM.

As for [pGlu]RCRLCCKGP[Nle]CF-OH (disulfide 6-12, 3-7) [Example 29: pE-R-C-R-L-C-C-K-G-P-Nle-C-F-OH], the “hAPJ Ca2+ Flux EC50” value amounted to 4.33 nM.

Regarding B3, the “hAPJ Ca2+ Flux EC50” value was determined as 11.1 nM.

Regarding B4, the “hAPJ Ca2+ Flux EC50” value worked out at 7.36 nM.

As to B5, the “hAPJ Ca2+ Flux EC50” value was determined as 24.5 nM.

Regarding B6, the “hAPJ Ca2+ Flux EC50” value came out at 182 nM.

Take B7: the “hAPJ Ca2+ Flux EC50” value worked out at 42 nM.

As to B8, the “hAPJ Ca2+ Flux EC50” value is 32.6 nM.

B9: the “hAPJ Ca2+ Flux EC50” value stood at 6.05 nM.

In the case of B10, the “hAPJ Ca2+ Flux EC50” value is 52.4 nM.

As for B11, the “hAPJ Ca2+ Flux EC50” value amounted to 8.1 nM.

For the molecule B12, the “hAPJ Ca2+ Flux EC50” value was 518 nM.

Regarding B13, the “hAPJ Ca2+ Flux EC50” value is 1.4 nM.

On to [pGlu]RPRL[Orn]HFGP[Nle]D-Phenethylamine (lactam 6-12) [Example 3: pE-R-P-R-L-Orn-H-F-G-P-Nle-D-Phenethylamine], for which the “hAPJ Ca2+ Flux EC50” value was determined as 1010 nM.

In the case of [pGlu]RPCLCCKGP[Nle]CF-OH (disulfide 6-12, 4-7) [Example 28: pE-R-P-C-L-C-C-K-G-P-Nle-C-F-OH], the “hAPJ Ca2+ Flux EC50” value worked out at 5.68 nM.

As for B14, the “hAPJ Ca2+ Flux EC50” value amounted to 65.5 nM.

On to B15, for which the “hAPJ Ca2+ Flux EC50” value is 29.8 nM.
